Laboratory results: patent publication US20070077603A1 (published 2007)

Legend:
Assay in all cases: ligand blot from native 4-15% PAGE of Sephacryl-300 fractions of hirudin-plasma
[1] = target: T1, multimeric protein S in plasma (human, UniProt P07225 42-676)
T1 construct: mature; also called protein S multimers in plasma; putative protein S multimers
T1 sequence (looked up): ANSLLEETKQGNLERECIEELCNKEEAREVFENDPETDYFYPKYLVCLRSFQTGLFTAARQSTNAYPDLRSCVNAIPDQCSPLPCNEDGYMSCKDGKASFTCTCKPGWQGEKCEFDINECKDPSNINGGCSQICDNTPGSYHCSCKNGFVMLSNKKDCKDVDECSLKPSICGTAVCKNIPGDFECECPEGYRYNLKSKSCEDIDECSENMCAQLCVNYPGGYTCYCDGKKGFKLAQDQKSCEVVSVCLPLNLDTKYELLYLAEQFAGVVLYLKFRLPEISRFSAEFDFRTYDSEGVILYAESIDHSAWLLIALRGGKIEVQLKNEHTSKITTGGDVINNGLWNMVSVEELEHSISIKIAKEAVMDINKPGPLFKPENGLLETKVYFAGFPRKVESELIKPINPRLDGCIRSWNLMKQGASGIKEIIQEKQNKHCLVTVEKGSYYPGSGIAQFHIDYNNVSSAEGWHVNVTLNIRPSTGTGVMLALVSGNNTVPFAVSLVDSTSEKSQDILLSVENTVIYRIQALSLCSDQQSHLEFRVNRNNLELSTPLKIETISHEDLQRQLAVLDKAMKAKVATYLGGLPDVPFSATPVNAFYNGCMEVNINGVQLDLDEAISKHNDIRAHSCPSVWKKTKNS
Description: (§1) Gel filtration - - - Purified protein S preparations or hirudin-plasma (200 μl ) were fractionated on a 1×30 cm Superose-6 HR column using Fast Performance Liquid Chromatography (Amersham-Pharmacia, Piscattaway, N.J.) at a flow rate of 0.4 ml/min in Hepes-buffered saline (HBS). Hirudin and citrated plasmas (300 ul) were each mixed with 700 μl of 50 mM benzamidine and fractionated on a 1.6×60 cm Sephacryl-300 column at a flow rate of 0.4 ml/min in Tris-buffered saline. Fractions were analyzed for protein S antigen by ELISA, for protein S multimers by native PAGE, and for PS-direct. ELISAs were also performed on the fractions for FV, FX, and C4BP antigens
(§2) To further separate protein S forms in plasma, hirudin-plasma and citrated plasma were each subjected to gel filtration on a larger column (FIGS. 8B and 8C). […] Biotin-FXa could ligand blot (Heeb, et al. Protein S binds to and inhibits factor Xa. Proc Natl Acad Sci USA. 1994;91:2728-2732) to PS-C4BP, multimeric and monomeric protein S in fractionated hirudin plasma (FIG. 8C).

[2] = target: T2, monomeric protein S in plasma (human, UniProt P07225 42-676)
T2 construct: mature; also called monomers
T2 sequence (looked up): T1 sequence (looked up)
Description: as §1, §2

[3] = target: T3, Protein S-C4b-binding protein complex in fractionated hirudin-plasma (human, UniProt P07225 42-676; P04003 49-597; P20851 18-252)
T3 construct: Native complex from plasma; also called PS-C4BP; Cx
T3 sequence (looked up) 1: T1 sequence (looked up)
T3 sequence (looked up) 2: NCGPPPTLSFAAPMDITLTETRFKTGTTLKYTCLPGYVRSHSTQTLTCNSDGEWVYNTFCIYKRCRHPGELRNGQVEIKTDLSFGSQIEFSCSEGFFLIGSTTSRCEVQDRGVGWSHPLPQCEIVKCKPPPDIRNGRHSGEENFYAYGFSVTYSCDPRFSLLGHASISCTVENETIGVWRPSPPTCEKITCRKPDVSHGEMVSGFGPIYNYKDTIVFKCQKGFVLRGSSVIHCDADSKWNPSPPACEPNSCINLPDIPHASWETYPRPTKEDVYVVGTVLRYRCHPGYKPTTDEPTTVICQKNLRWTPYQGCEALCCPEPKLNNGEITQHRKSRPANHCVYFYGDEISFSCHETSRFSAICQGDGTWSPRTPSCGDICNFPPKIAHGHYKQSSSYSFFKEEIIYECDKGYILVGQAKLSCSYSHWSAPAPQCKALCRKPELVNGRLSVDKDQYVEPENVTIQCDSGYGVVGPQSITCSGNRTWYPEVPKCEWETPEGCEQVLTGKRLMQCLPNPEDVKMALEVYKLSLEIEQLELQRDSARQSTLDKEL
T3 sequence (looked up) 3: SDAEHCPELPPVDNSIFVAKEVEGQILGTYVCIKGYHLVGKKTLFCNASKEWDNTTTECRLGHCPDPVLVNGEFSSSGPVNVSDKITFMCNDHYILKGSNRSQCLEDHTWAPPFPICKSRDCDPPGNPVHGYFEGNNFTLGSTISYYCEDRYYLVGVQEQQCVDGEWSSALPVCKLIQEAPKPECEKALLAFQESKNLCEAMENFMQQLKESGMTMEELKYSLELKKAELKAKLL
Description: as §1, §2

Measured: binding result

B1: Biotin-FX (other)
chain 1: ANSFLEEMKKGHLERECMEETCSYEEAREVFEDSDKTNEFWNKYKDGDQCETSPCQNQGKCKDGLGEYTCTCLEGFEGKNCELFTRKLCSLDNGDCDQFCHEEQNSVVCSCARGYTLADNGKACIPTGPYPCGKQTLER
chain 2: SVAQATSSSGEAPDSITWKPYDAADLDPTENPFDLLDFNQTQPERGDNNLTRIVGGQECKDGECPWQALLINEENEGFCGGTILSEFYILTAAHCLYQAKRFKVRVGDRNTEQEEGGEAVHEVEVVIKHNRFTKETYDFDIAVLRLKTPITFRMNVAPACLPERDWAESTLMTQKTGIVSGFGRTHEKGRQSTRLKMLEVPYVDRNSCKLSSSFIITQNMFCAGYDTKQEDACQGDSGGPHVTRFKDTYFVTGIVSWGEGCARKGKYGIYTKVTAFLKWIDRSMKTRGLPKAKSHAPEVITSSPLK
modifications: biotinylated (sites not given)
no binding: all assays above
